# Laboratory results: PMC5727057
# Where “and” joins values, the source holds several entries; their conditions need not be identical. Identical values can stand only once. Like-named read-outs stand apart in the source and are kept apart here.
# Assays:
# [1] = target: GmSKRP1 (protein used for isothermal titration calorimetry) (soybean); assay: ITC; 40 μM GmSKRP1 in the cell titrated with 400 μM PsAvr3c from the syringe; 25 °C; 20 mM HEPES pH 7.5, 200 mM NaCl; one-site binding model; three independent experiments
# [2] = target: GmSKRP1 (protein used for isothermal titration calorimetry) (soybean); assay: as above; remark: listed apart in the source
substance,measurement,setting,value
PsAvr3c (protein used for isothermal titration calorimetry) (natural protein),Kd,[1],3.38 µM and 3.52 µM and 3.14 µM
same,Kd,[2],3.35 µM
